# B1: MNAT1 (parent)
# chain: SLREYNDFLEEVEEIVFNLTNNVD
# Variants of: B1
# Assay: protein stability index of a GFP-peptide fusion (GPS, HEK-293T) (PSI 1-6); higher = more stable
# Settings: c terminus: a fixed tail appended
# 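Note: lentivirally expressed fusions sorted by FACS into six bins by GFP to DsRed ratio, PSI derived from sequencing read proportions per bin multiplied by bin number.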
row,Variant,protein stability index
1,SLREYYDFLEEVEEIVFNLTNNVD [N6Y],1.87
2,SLREYDDFLEEVEEIVFNLTNNVD [N6D],2.4
3,SLREYTDFLEEVEEIVFNLTNNVD [N6T],2.27
4,SLREYHDFLEEVEEIVFNLTNNVD [N6H],1.8
5,SLREYQDFLEEVEEIVFNLTNNVD [N6Q],1.75
6,SLREYVDFLEEVEEIVFNLTNNVD [N6V],1.68
7,SLREYFDFLEEVEEIVFNLTNNVD [N6F],2.77
8,SLREYGDFLEEVEEIVFNLTNNVD [N6G],3.17
9,SLREYWDFLEEVEEIVFNLTNNVD [N6W],2.38
10,SLREYADFLEEVEEIVFNLTNNVD [N6A],2.82
11,SLREYPDFLEEVEEIVFNLTNNVD [N6P],3.08
12,SLREYMDFLEEVEEIVFNLTNNVD [N6M],1.76
13,SLREYKDFLEEVEEIVFNLTNNVD [N6K],3.15
14,SLREYRDFLEEVEEIVFNLTNNVD [N6R],2.23
15,SLREYIDFLEEVEEIVFNLTNNVD [N6I],2.63
16,SLREYCDFLEEVEEIVFNLTNNVD [N6C],1.78
17,SLREYEDFLEEVEEIVFNLTNNVD [N6E],1.76
18,SLREYSDFLEEVEEIVFNLTNNVD [N6S],3.31
19,SLREYNDFLEFVEEIVFNLTNNVD [E11F],1.49
20,SLREYNDFLEIVEEIVFNLTNNVD [E11I],1.89
21,SLREYNDFLEAVEEIVFNLTNNVD [E11A],1.86
22,SLREYNDFLEYVEEIVFNLTNNVD [E11Y],2.23
23,SLREYNDFLEDVEEIVFNLTNNVD [E11D],2.51
24,SLREYNDFLETVEEIVFNLTNNVD [E11T],1.97

row,Variant,protein stability index
1,SLREYNDFLERVEEIVFNLTNNVD [E11R],2.17
2,SLREYNDFLECVEEIVFNLTNNVD [E11C],2.33
3,SLREYNDFLEKVEEIVFNLTNNVD [E11K],2.07
4,SLREYNDFLEGVEEIVFNLTNNVD [E11G],2.13
5,SLREYNDFLENVEEIVFNLTNNVD [E11N],1.68
6,SLREYNDFLEMVEEIVFNLTNNVD [E11M],1.87
7,SLREYNDFLEPVEEIVFNLTNNVD [E11P],3.1
8,SLREYNDFLEQVEEIVFNLTNNVD [E11Q],1.72
9,SLREYNDFLEWVEEIVFNLTNNVD [E11W],2.46
10,SLREYNDFLESVEEIVFNLTNNVD [E11S],1.73
11,SLREYNDFLEHVEEIVFNLTNNVD [E11H],2.07
12,SLREYNDKLEEVEEIVFNLTNNVD [F8K],4.28
13,SLREYNDTLEEVEEIVFNLTNNVD [F8T],4.55
14,SLREYNDALEEVEEIVFNLTNNVD [F8A],3.06
15,SLREYNDDLEEVEEIVFNLTNNVD [F8D],4.87
16,SLREYNDLLEEVEEIVFNLTNNVD [F8L],3.43
17,SLREYNDRLEEVEEIVFNLTNNVD [F8R],4.61
18,SLREYNDPLEEVEEIVFNLTNNVD [F8P],4.78
19,SLREYNDELEEVEEIVFNLTNNVD [F8E],5.2
20,SLREYNDNLEEVEEIVFNLTNNVD [F8N],4.84
21,SLREYNDQLEEVEEIVFNLTNNVD [F8Q],4.55
22,SLREYNDMLEEVEEIVFNLTNNVD [F8M],3.51
23,SLREYNDILEEVEEIVFNLTNNVD [F8I],2.57
24,SLREYNDCLEEVEEIVFNLTNNVD [F8C],3.8

row,Variant,protein stability index
1,SLREYNDWLEEVEEIVFNLTNNVD [F8W],2.53
2,SLREYNDSLEEVEEIVFNLTNNVD [F8S],4.91
3,SLREYNDGLEEVEEIVFNLTNNVD [F8G],4.11
4,SLREYNDYLEEVEEIVFNLTNNVD [F8Y],3.6
5,SLREYNDHLEEVEEIVFNLTNNVD [F8H],4.72
6,SLREYNDVLEEVEEIVFNLTNNVD [F8V],3.63
7,SLREYNDFLEEVEGIVFNLTNNVD [E14G],2.34
8,SLREYNDFLEEVEFIVFNLTNNVD [E14F],2.82
9,SLREYNDFLEEVEDIVFNLTNNVD [E14D],2.88
10,SLREYNDFLEEVEHIVFNLTNNVD [E14H],2.19
11,SLREYNDFLEEVECIVFNLTNNVD [E14C],2.24
12,SLREYNDFLEEVEAIVFNLTNNVD [E14A],1.82
13,SLREYNDFLEEDEEIVFNLTNNVD [V12D],4.97
14,SLREYNDFLEEQEEIVFNLTNNVD [V12Q],4.08
15,SLREYNDFLEETEEIVFNLTNNVD [V12T],3.48
16,SLREYNDFLEEFEEIVFNLTNNVD [V12F],1.86
17,SLREYNDFLEEREEIVFNLTNNVD [V12R],4.19
18,SLREYNDFLEESEEIVFNLTNNVD [V12S],4.5
19,SLREYNDFLEEWEEIVFNLTNNVD [V12W],1.87
20,SLREYNDFLEEAEEIVFNLTNNVD [V12A],3.22
21,SLREYNDFLEECEEIVFNLTNNVD [V12C],2.9
22,SLREYNDFLEEPEEIVFNLTNNVD [V12P],3.91
23,SLREYNDFLEEMEEIVFNLTNNVD [V12M],1.74
24,SLREYNDFLEEEEEIVFNLTNNVD [V12E],4.49

row,Variant,protein stability index
1,SLREYNDFLEEGEEIVFNLTNNVD [V12G],4.16
2,SLREYNDFLEENEEIVFNLTNNVD [V12N],4.83
3,SLREYNDFLEEKEEIVFNLTNNVD [V12K],4.72
4,SLREYNDFLEEHEEIVFNLTNNVD [V12H],3.48
5,SLREYNDFLEELEEIVFNLTNNVD [V12L],1.09
6,SLREYNDFLEEYEEIVFNLTNNVD [V12Y],3.04
7,SLREYNDFLEEIEEIVFNLTNNVD [V12I],2.13
8,SLREYNDFLEEVDEIVFNLTNNVD [E13D],2.87
9,SLREYNDFLEEVVEIVFNLTNNVD [E13V],2.87
10,SLREYNDFLEEVWEIVFNLTNNVD [E13W],2.52
11,SLREYNDFLEEVFEIVFNLTNNVD [E13F],2.27
12,SLREYNDFLEEVTEIVFNLTNNVD [E13T],1.58
13,SLREYNDFLEEVPEIVFNLTNNVD [E13P],3.69
14,SLREYNDFLEEVIEIVFNLTNNVD [E13I],2.58
15,SLREYNDFLEEVGEIVFNLTNNVD [E13G],2.43
16,SLREYNDFLEEVNEIVFNLTNNVD [E13N],2.37
17,SLREYNDFLEEVHEIVFNLTNNVD [E13H],2.15
18,SLREYNDFLEEVYEIVFNLTNNVD [E13Y],1.63
19,SLREYNDFLEEVAEIVFNLTNNVD [E13A],1.77
20,SLREYNDFLEEVSEIVFNLTNNVD [E13S],1.74
21,SLREYNDFLEEVCEIVFNLTNNVD [E13C],2.34
22,SLREYNDFLEEVREIVFNLTNNVD [E13R],1.87

# Reference: the supplement of paper PMC10567573
